The record followed here is the RNAGym collection of RNA variant scans (doi:10.7554/elife.80360).

First the molecules themselves.
B1: HDV Ribozyme (parent)
chain: GGCCGGCAUGGUCCCAGCCUCCUCGCUGGCGCCGGCUGGGCAACAUUCCGAGGGGACCGUCCCCUCGGUAAUGGCGAAUGGGACCCA

The variants in this series derive from B1. Nature of the series: self-cleavage, relative activity (ratio to wild type); higher = more cleavage; co-transcriptional.
On to G17U C57U, for which the self-cleavage amounted to 0.415.
In the case of G34U G40C, the self-cleavage stood at 0.0415.
As to C3G G17A, the self-cleavage was 0.102.
As to A8G C13A, the self-cleavage came out at 0.175.
The result for A42G G81A reads 0.106.
As to U23A U65G, the self-cleavage was determined as 1.18.
As to G52A G59U, the self-cleavage amounted to 0.865.
Regarding G34C U72A, the self-cleavage was 0.17.
Then C4G G38A, with 0; and C62G U72C, with 0.525.
Then U27A U46G, with 0.369; and G5A U65A, with 0.259; and C84U C86G, with 0.907.
Then C26U G40C, with 0.946; and G67U C86U, with 0.933; and C48G C61A, with 0.927.
As to U69C U79G, the self-cleavage amounted to 1.16.
For the variant G29C U79A, the self-cleavage is 0.147.
In the case of C33G G35U, the self-cleavage was found to be 0.142.
Then C19G G59C, with 0.141; and U12G C19G, with 0.
The result for C32G G59U reads 0.0519.
U46G C63G: the self-cleavage came to 0.293.
Regarding U20A G38A, the self-cleavage stood at 0.0332.
The result for G1A G28A reads 0.0332.
Then C24U A87U, with 0.696.
With C18A G59A, the self-cleavage came to 0.228.
The result for G39C A83G reads 0.317; that for C30G U60C, 0.147.
The result for C7G U46A reads 0; that for G73U G76U, 0.212; that for A51U C61U, 0.781.
The result for C19G A43C reads 0.0652; that for C64A A70G, 0.749; that for C44A C62U, 0.723.
For the variant U46A C49U, the self-cleavage is 0.739.
Then C13U C85A, with 0.475; and G2C C13A, with 0.0707.
Take C21A G39C: the self-cleavage is 0.113.
Regarding A8U U72A, the self-cleavage was determined as 0.369.
The result for A8U U72G reads 0.289; that for G59A C61G, 1.07.
Turning to G55U C85G, the self-cleavage was determined as 0.927.
The result for C26U A45G reads 0.831.
The result for C57U U69G reads 1.27; that for C22G G67C, 0.132; that for U20C C66G, 0.131.
Then C41U A51G, with 0.914; and C84G C86U, with 0.675.
C24A A77U: the self-cleavage amounted to 0.185.
Turning to G73A A83U, the self-cleavage came out at 0.323.
The result for C58U U79A reads 1.07.
Then G11U G17C, with 0.203; and A45U C57U, with 0.712.
U20G C26G: the self-cleavage worked out at 0.196.
Take C7A G17C: the self-cleavage is 0.
Then C14A G39A, with 0.177; and G54C A71U, with 0.731; and G40U C66U, with 0.753.
The result for C15U C57A reads 1.03.
The result for C63G A77C reads 0.58; that for G11A C62U, 0.354; that for C15A U47C, 0.317.
As to C13U A71G, the self-cleavage is 0.429.
Then A8C U27G, with 0.88; and A43G C61A, with 0.499; and G17C U72C, with 0.
The result for U72C A83G reads 0.318.
Then G29C C41U, with 0.0297; and G55A A87G, with 0.966.
As to U60C G81C, the self-cleavage was found to be 0.291.
Then G34U G74C, with 0.138; and U46A A70U, with 0.587; and C49G G53U, with 0.723.
On to C61G C85U, for which the self-cleavage worked out at 1.04.
The result for G17C C62G reads 0.0723; that for G25A C61U, 0.225.
As for A42U C63G, the self-cleavage is 0.504.
Regarding G5C G82U, the self-cleavage was 0.0594.
Then U79G A87G, with 0.669; and G6U G81C, with 0.196.
Take G38U C64U: the self-cleavage turned out to be 0.25.
Then G67C A78G, with 0.492; and G28U C33U, with 0.117; and G28U G55A, with 0.0712.
On to U20C G52A, for which the self-cleavage was determined as 0.175.
Then G34U C75A, with 0.107; and G2U C86U, with 0.095; and G5C C49U, with 0.0755.
Then G5C C49A, with 0.178; and A16C C66U, with 0.982.
For G25C C41A, the self-cleavage was found to be 0.0898.
For C7G U72G, the self-cleavage was 0.
The result for C66A A87G reads 0.898; that for G5A A42C, 0.135; that for G1C G40U, 0.189.
In the case of C18A C84G, the self-cleavage is 0.0437.
Then A51U C66G, with 0.816; and C22G U60A, with 0.141; and G5A C57U, with 0.106.
The result for C36G C58G reads 0.0594.
Then G40C C61A, with 0.256; and C21G G81C, with 0.0504.
Take G40C G81C: the self-cleavage was found to be 0.115.
The result for G35U C44A reads 0.
Then G11A A70C, with 0.175; and G11A U47C, with 0.475; and A16C G35C, with 0.175.
Then G11U C57U, with 0.282; and G52U G53C, with 0.672; and G52U G53U, with 0.733.
Take C13U U37C: the self-cleavage was 0.369.
With G1U G38A, the self-cleavage stood at 0.422.
Then G17A G39A, with 0.095; and G17A G39U, with 0.197.
For G68C G82U, the self-cleavage stood at 0.352.
Then A42G A51C, with 0.831.
In the case of C24G C33A, the self-cleavage amounted to 0.244.
With G50C C86G, the self-cleavage is 0.944.
Turning to G29C G34C, the self-cleavage was 0.125.
The result for C3G G39C reads 0.157; that for A51U G68A, 0.787; that for U12A A78C, 0.123.
As to C32A G53C, the self-cleavage stood at 0.0923.
The result for U9G G55U reads 1.05; that for U23C C48U, 0.806.
G1C U37G: the self-cleavage worked out at 0.
For the variant C44A C58G, the self-cleavage was found to be 0.831.
For the variant C24G C41A, the self-cleavage is 0.113.
Then G34U C61G, with 0.378; and A42G U46G, with 0.0875.
With C21A G80A, the self-cleavage stood at 0.0289.
In the case of G28A G35U, the self-cleavage came to 0.0601.
Take U20A G53C: the self-cleavage was found to be 0.0773.
In the case of U20A G53A, the self-cleavage is 0.122.
As for A8C C22G, the self-cleavage was 0.0791.
Turning to C24U G40C, the self-cleavage was 0.138.
The result for A70U G81U reads 0.469; that for G17C C24U, 0.106; that for A77U G82U, 0.0811.
For the variant G5U C86U, the self-cleavage came out at 0.554.
With G39A C66G, the self-cleavage was 0.437.
Then C33A C85U, with 0.277.
For the variant G39U A56C, the self-cleavage worked out at 0.701.
Then U12C C63G, with 0.123; and C36U C85G, with 0.799; and C21G G52U, with 0.117.
Then A51G G52C, with 0.789; and C24A U60G, with 0.678; and C21A U72C, with 0.101.
As for C7A C41G, the self-cleavage was determined as 0.
On to G73A G81A, for which the self-cleavage turned out to be 0.176.
Then C32A C57G, with 0.389; and C24A C66U, with 0.69; and G17U C36A, with 0.0665.
Consider C24A G52A, for which the self-cleavage amounted to 1.1.
The result for A16C A77U reads 0.199; that for G1C A71C, 0.256; that for A16G G38C, 0.142.
C32G C86G: the self-cleavage is 0.119.
Consider G2A A87U, for which the self-cleavage came to 0.237.
Then C75G A83U, with 0.201; and U20A A42U, with 0; and C63A U72G, with 0.369.
The result for C30U C49G reads 0.31; that for G50C C58A, 1.
Then A16U U37G, with 0.
